According to US20260008817A1, “CYCLIC PEPTIDE OR SALT THEREOF, AND USES THEREOF” (FUJIFILM Corporation, priority 2023, published 2026):

Tests used:
[1] = molecular target: T1, FGFR1 Protein, Human, Recombinant (His Tag) (Homo sapiens, UniProt P11362); assay: SPR FGFR versatility, FGFR1 on immobilized cyclic peptide; assay type: binding; details: 1 μmol/L FGFR, 25° C.
T1 construct: His tag; purchased Sino Biological 10616-H08H
T1 sequence (P11362 22-285 isoform P11362-14 limits assumed): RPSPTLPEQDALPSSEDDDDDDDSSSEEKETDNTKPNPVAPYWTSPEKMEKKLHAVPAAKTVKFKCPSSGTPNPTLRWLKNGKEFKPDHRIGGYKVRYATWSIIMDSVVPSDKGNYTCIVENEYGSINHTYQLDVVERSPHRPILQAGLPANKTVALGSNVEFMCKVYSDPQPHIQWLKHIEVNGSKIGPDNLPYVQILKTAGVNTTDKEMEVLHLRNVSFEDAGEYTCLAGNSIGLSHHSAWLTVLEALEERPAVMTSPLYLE
Method: (§1) The binding of the cyclic peptide to various types of FGFRs was evaluated using a surface plasmon resonance (SPR) method.
(§2) The binding affinity of the chemically synthesized cyclic peptide to FGFR was evaluated by the following procedure.
(§3) A CM5 sensor chip (Cytiva, 29149603) was set in Biacore-T200 (manufactured by Cytiva) which is a surface plasmon resonance device, and an HBS-EP buffer (Cytiva, BR100826) was added as a running buffer at a flow rate of 10 μL/min to equilibrate the flow channel. Next, 70 μL of a mixed aqueous solution of 0.2 mol/L 1-(3-dimethylaminopropyl)-3-ethylcarbodiimide (EDC) and 0.05 mol/L N-hydroxysuccinimide (NHS) was added to activate the sensor chip. Then, a cyclic peptide prepared to 2 mg/mL in HBS-EP buffer was added thereto to perform immobilization at about 200 RU. […]
(§4) After various FGFRs (FGFR1 Protein, Human, Recombinant (His Tag) (Sino Biological, 10616-H08H), FGFR3 Protein, Human, Recombinant (ECD, His Tag) (Sino Biological, 16044-H08H), FGFR4 Protein, Human, Recombinant (His Tag) (Sino Biological, 10538-H08H)) diluted with HBS-EP to 1 μmol/L at 25° C. was added to each flow channel of the cyclic peptide-immobilized sensor chip prepared above, for 10 minutes, HBS-EP was allowed to flow as a running buffer for 30 minutes, and the binding of various FGFRs to the cyclic peptide was measured. […]

[2] = molecular target: T2, FGFR3 Protein, Human, Recombinant (ECD, His Tag) (Homo sapiens, UniProt P22607); assay: SPR FGFR versatility, FGFR3 on immobilized cyclic peptide; assay type: binding; details: 1 μmol/L FGFR, 25° C.
T2 construct: FGFR3 Protein, Human, Recombinant (ECD, His Tag); His tag; purchased Sino Biological 16044-H08H
T2 sequence (P22607 23-375 limits assumed): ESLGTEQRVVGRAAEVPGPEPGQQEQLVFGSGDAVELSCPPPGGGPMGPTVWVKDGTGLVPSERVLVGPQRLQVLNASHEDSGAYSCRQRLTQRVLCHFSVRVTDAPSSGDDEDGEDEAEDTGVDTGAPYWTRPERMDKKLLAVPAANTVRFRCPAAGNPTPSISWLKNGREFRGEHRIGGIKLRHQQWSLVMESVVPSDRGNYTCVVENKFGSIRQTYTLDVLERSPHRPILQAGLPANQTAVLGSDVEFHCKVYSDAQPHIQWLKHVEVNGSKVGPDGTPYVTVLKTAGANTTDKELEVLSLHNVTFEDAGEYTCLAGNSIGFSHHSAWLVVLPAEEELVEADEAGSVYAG
Method: as §1, §2, §3, §4

“335 (ACVWTFDRHAQEISQALHKVKKK; not fully specified; Description of Artificial Sequence: Cyclic peptide) [compound 335]” was tested, and the “Evaluation result of binding affinity to FGFR1” value [1] was “A (The binding amount is 0.05 molecules of FGFR/one molecule of the cyclic peptide or more.)” and the “Evaluation result of binding affinity to FGFR3” value [2] was “B (The binding amount is 0.01 molecules of FGFR/one molecule of the cyclic peptide or more and less than 0.05 molecules of FGFR/one molecule of the cyclic peptide.)”.
